In series [1] the target is zif268 (EGR1 DNA-binding domain), cleaved (UniProt P08046). The series can be described thus: solid-state nanopore. The following applies: EMSA: binding on ice, at least 1 h, native PAGE 8% (oligos) or 3.5% (1 kb), salt up to 1 M KCl; nanopore: 1 M KCl, 30 min incubation at 200:1 protein:DNA; pH …. On the technique in general: Mobility shift assays separate free from complexed probe on a gel.

For series [2], the target named is zif268_GST (uncleaved fusion) (UniProt P08046). Nature of the series: EMSA. The following applies: EMSA: binding on ice, at least 1 h, native PAGE 8% (oligos) or 3.5% (1 kb), salt up to 1 M KCl; nanopore: 1 M KCl, 30 min incubation at 200:1 protein:DNA; pH ….

As for (-)DNA 960 bp, the binding signal (% ABA (specifically bound) events) in series [1] stood at 4.3.

On to “CGTCAGGGCAAGCCTTATTCACTGAATGAGCAGCTTTGTTACGTTGATTTGGGTAATGAATATCCGGTTCTTGTCAAGATTACTCTTGATGAAGGTCAGCCAGCCTATGCGCCTGGTCTGTACACCGTTCATCTGTCCTCTTTCAAAGTTGGTCAGTTCGGTTCCCTTATGATTGACCGTCTGCGCCTCGTTCCGGCTAAGTAACATGGAGCAGGTCGCGGATTTCGACACAATTTATCAGGCGATGATACAAATCTCCGTTGTACTTTGTTTCGCGCTTGGTATAATCGCTGGGGGTCAAAGATGAGTGTTTTAGTGTATTCTTTCGCCTCTTTCGTTTTAGGTTGGTGCCTTCGTAGTGGCATTACGTATTTTACCCGTTTAATGGAAACTTCCTCATGAAAAAGTCTTTAGTCCTCAAAGCCTCTGTAGCCGTTGCTACCCTCGTTCCGATGCTGTCTTTCGCTGCTGAGGGTGACGATCCCGCAAAAGCGGCCTTTAACTCCCTGCAAGCCTCAGCGACCGAATATATCGGTTATGCGTGGGCGATGGTTGTTGTCATTGTCGGCGCAACTATCGGTATCAAGCTGTTTAAGAAATTCACCTCGAAAGCAAGCTGATAAACCGATACAATTAAAGGCTCCTTTTGGAGCCTTTTTTTTTGGAGATTTTCAACGTGAAAAAATTATTATTCGCAATTCCTTTAGTTGTTCCTTTCTATTCTCACTCCGCTGAAACTGTTGAAAGTTGTTTAGCAAAACCCCATACAGAAAATTCATTTACTAACGTCTGGAAAGACGACAAAACTTTAGATCGTTACGCTAACTATGAGGGTTGTCTGTGGAATGCTACAGGCGTTGTAGTTTGTACTGGTGACGAAACTCAGTGTTACGGTACATGGGTTCCTATTGGGCTTGCTATCCCTGAAAATGAGGGTGGTGGCTCTGAGGGTGGCGGTTCTGAGGGTGGCGGTTCTGAGGGTGGCGGTACTAAACCTCCTGAGTACGGT (double strand) [(+)DNA 1009 bp]”, for which the binding signal (% ABA (specifically bound) events) in series [1] turned out to be 11.5. The binding signal (% bound at 1:250 DNA:protein) in series [2] was determined as 50.

(Values after paper PMC4479991.)
